Experimental data as given in patent publication US20240053349A1.
Square brackets hold non-standard residues; d marks the D form. Ends that are not written are not given here.

Tests used:
[1] = target: human plasma proteins; test: plasma protein binding, dialysis 4 h at 37 C, 2 µM, LC-MS/MS; control
[2] = target: mouse plasma proteins (CD-1 mouse); test: as above
[3] = target: T1, Fol-hshta-Lys(4-MPBA)-Gly-Phe-Lys(AO) (compound #3304)
T1 chain: HSHTAKGFK

[4] = target: T2, Folate-hshta-G-F-K(DOTA)-OH (Indi 7327, compound #7327) (not fully specified)
T2 chain: HSHTAGFK

[5] = target: T3, Fol-hshta-PEG3-Lys(DOTA) (compound #1189) (not fully specified)
T3 chain: HSHTAK

[6] = target: T4, Folate-hshta-Lys(IPBA)-Gly-Phe-Lys(DOTA) (compound #1307) (not fully specified)
T4 chain: HSHTAKGFK

[7] = target: T5, Folate-hshta-Lys(IPBA)-M-V-Lys(DOTA) (compound #1306) (not fully specified)
T5 chain: HSHTAKMVK

[8] = target: T6, Folate-hshta-Lys(MPBA)-Gly-Phe-Lys(DOTA) (compound #6305) (not fully specified)
T6 chain: HSHTAKGFK

[9] = target: T7, Fol-hshta-Gly-Phe-Lys(AO) (compound #3303) (not fully specified)
T7 chain: HSHTAGFK

[10] = target: T8, Fol-hshta-PEG3-Gly-Phe-Lys(DOTA) (compound #6307)
T8 chain: HSHTAGFK

[11] = target: T9, Fol-hshta-Lys(4-MPBA)-Gly-Phe-Lys(PEG3-DOTA) (compound #3302) (not fully specified)
T9 chain: HSHTAKGFK

[12] = target: T10, Folate-hshta-PEG3-Lys(MPBA)-Lys(DOTA) (compound #2809) (not fully specified)
T10 chain: HSHTAKK

[13] = target: Human FOLR1 on OVCAR3 cells (human) (UniProt P15328); test: flow cytometry on OVCAR3 cells after 1 h at 37 C, after acid wash (internalized fraction)
Sequence of Human FOLR1 on OVCAR3 cells (human) (P15328 25-234 limits assumed): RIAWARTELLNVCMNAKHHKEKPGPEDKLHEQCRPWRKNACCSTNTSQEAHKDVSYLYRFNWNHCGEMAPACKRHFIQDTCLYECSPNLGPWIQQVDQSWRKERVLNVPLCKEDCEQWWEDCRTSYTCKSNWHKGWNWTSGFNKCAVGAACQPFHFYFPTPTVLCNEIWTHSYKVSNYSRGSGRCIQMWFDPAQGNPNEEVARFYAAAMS

[14] = target: Human FOLR1 on OVCAR3 cells (human) (UniProt P15328); test: flow cytometry on OVCAR3 cells after 1 h at 37 C, before acid wash

Octreotide Acetate (peptide) gave a Plasma % Bound [1] of 59.4% and a Plasma % Bound [2] of 62.4%.

B1: human recombinant neprilysin (NEP) (protein)
chain: YDDGICKSSDCIKSAARLIQNMDATTEPCTDFFKYACGGWLKRNVIPETSSRYGNFDILRDELEVVLKDVLQEPKTEDIVAVQKAKALYRSCINESAIDSRGGEPLLKLLPDIYGWPVATENWEQKYGASWTAEKAIAQLNSKYGKKVLINLFVGTDDKNSVNHVIHIDQPRLGLPSRDYYECTGIYKEACTAYVDFMISVARLIRQEERLPIDENQLALEMNKVMELEKEIANATAKPEDRNDPMLLYNKMTLAQIQNNFSLEINGKPFSWLNFTNEIMSTVNISITNEEDVVVYAPEYLTKLKPILTKYSARDLQNLMSWRFIMDLVSSLSRTYKESRNAFRKALYGTTSETATWRRCANYVNGNMENAVGRLYVEAAFAGESKHVVEDLIAQIREVFIQTLDDLTWMDAETKKRAEEKALAIKERIGYPDDIVSNDNKLNNEYLELNYKEDEYFENIIQNLKFSQSKQLKKLREKVDKDEWISGAAVVNAFYSSGRNQIVFPAGILQPPFFSAQQSNSLNYGGIGMVIGHEITHGFDDNGRNFNKDGDLVDWWTQQSASNFKEQSQCMVYQYGNFSWDLAGGQHLNGINTLGENIADNGGLGQAYRAYQNYIKKNGEEKLLPGLDLNHKQLFFLNFAQVWCGTYRPEYAVNSIKTDVHSPGNFRIIGTLQNSAEFSEAFHCRKNSYMNPEKKCRVW
In the case of B1, the “NEP cleavage (in vitro Assay Data)” value [3] is reported as “Cleavage of -G-F-K- linker was confirmed in NEP assay”, the “NEP cleavage (in vitro Assay Data)” value [4] is reported as “Cleavage of -G-F-K- linker was confirmed in NEP assay” and the “NEP-mediated cleavage, NEP titration (10.0 to 0 nM), 37 C 1 h, MALDI-MS” value [4] is reported as “At 10 nM NEP, no intact Indi 7327 remains indicating complete consumption of the peptide. At 1.0 and 0.1 nM NEP, partial cleavage was observed. Below 0.1 nM NEP, no cleavage was observed”. For the same molecule, the “NEP cleavage (in vitro Assay Data)” value [5] was “Confirmed to be resistant to NEP cleavage”, the “NEP cleavage (in vitro Assay Data)” value [6] was “Cleavage of -G-F-K- linker was confirmed in NEP assay” and the “NEP-mediated cleavage, MALDI-TOF MS” value [6] was “At 1 nM NEP, substantial (and in the case of GFK complete) cleavage of the test article was observed by MALDI-TOF MS”. For the same molecule, the “NEP cleavage (in vitro Assay Data)” value [7] was “Cleavage of -M-V-K- linker was confirmed in NEP assay”, the “NEP-mediated cleavage, MALDI-TOF MS” value [7] was “At 1 nM NEP, substantial (and in the case of GFK complete) cleavage of the test article was observed by MALDI-TOF MS” and the “NEP cleavage (in vitro Assay Data)” value [8] was “Cleavage of -G-F-K- linker was confirmed in NEP assay”. For the same molecule, the “NEP-mediated cleavage, NEP titration, MALDI (10 uM PCC)” value [8] was “At 10 nM NEP, complete consumption of the starting peptide was observed. At 1 nM and 0.1 nM NEP, partial cleavage was observed. Below 0.1 nM no cleavage was observed”, the “NEP cleavage (in vitro Assay Data)” value [9] was “Cleavage of -G-F-K- linker was confirmed in NEP assay” and the “NEP cleavage (in vitro Assay Data)” value [10] was “Cleavage of -G-F-K- linker was confirmed in NEP assay”. The “NEP cleavage (in vitro Assay Data)” value [11] was “Cleavage of -G-F-K- linker was confirmed in NEP assay” and the “NEP cleavage (in vitro Assay Data)” value [12] was “Confirmed to be resistant to NEP cleavage”.

B2: DyLight650-labeled folate-hshta Nterm heterobiligand (peptide)
peptide: folate-[dH][dS][dH][dT][dA]
modifications: also: triazole macrocycle via Pra and Az4, places not given here, DyLight 650 label, site not given here
B2 showed a percentage of positively stained cells [13] of 54.2% and a percentage of positively stained cells [14] of 73.4%.
